Laboratory results taken from patent US20210388087A1 (Chugai, published 2021).

Target: T1, Human CD137 ECD (human)
T1 construct: also called 4-1BB
Experiment: single mutant vs template dBBDu183H

T1 sequence (chain, as listed by the source limits assumed): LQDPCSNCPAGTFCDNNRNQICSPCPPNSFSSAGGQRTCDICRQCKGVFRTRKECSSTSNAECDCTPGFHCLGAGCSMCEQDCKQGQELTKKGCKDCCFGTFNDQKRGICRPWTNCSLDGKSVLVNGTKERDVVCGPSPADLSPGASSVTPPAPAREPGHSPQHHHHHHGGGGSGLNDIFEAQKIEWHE

Row | Binder | fold change of affinity
1 | H183/L072 VH A32L (antibody, name in Kabat numbering, V domains shown) VH: QVQLVESGGGLVQPGRSLRLSCAASGFTFSNLWMHWVRQAPGKGLEWVAQIKDKGNAYAAYYAPSVKGRFTISRDDSKNSIYLQMNSLKTEDTAVYYCHYVHYASASTVLPAFGVDAWGQGTTVTVSS VL: DIVMTQSPLSLPVTPGEPASISCQASQELVHMNRNTYLHWYQQKPGQAPRLLIYKVSNRFPGVPDRFSGSGSGTDFTLKISRVEAEDVGVYYCAQGTSVPFTFGQGTKLEIK | 1.2 fold
2 | H183/L072 VH A32R (antibody, name in Kabat numbering, V domains shown) VH: QVQLVESGGGLVQPGRSLRLSCAASGFTFSNRWMHWVRQAPGKGLEWVAQIKDKGNAYAAYYAPSVKGRFTISRDDSKNSIYLQMNSLKTEDTAVYYCHYVHYASASTVLPAFGVDAWGQGTTVTVSS VL: DIVMTQSPLSLPVTPGEPASISCQASQELVHMNRNTYLHWYQQKPGQAPRLLIYKVSNRFPGVPDRFSGSGSGTDFTLKISRVEAEDVGVYYCAQGTSVPFTFGQGTKLEIK | 0.3 fold
3 | H183/L072 VH A32Y (antibody, name in Kabat numbering, V domains shown) VH: QVQLVESGGGLVQPGRSLRLSCAASGFTFSNYWMHWVRQAPGKGLEWVAQIKDKGNAYAAYYAPSVKGRFTISRDDSKNSIYLQMNSLKTEDTAVYYCHYVHYASASTVLPAFGVDAWGQGTTVTVSS VL: DIVMTQSPLSLPVTPGEPASISCQASQELVHMNRNTYLHWYQQKPGQAPRLLIYKVSNRFPGVPDRFSGSGSGTDFTLKISRVEAEDVGVYYCAQGTSVPFTFGQGTKLEIK | 0 fold
4 | H183/L072 VH A32V (antibody, name in Kabat numbering, V domains shown) VH: QVQLVESGGGLVQPGRSLRLSCAASGFTFSNVWMHWVRQAPGKGLEWVAQIKDKGNAYAAYYAPSVKGRFTISRDDSKNSIYLQMNSLKTEDTAVYYCHYVHYASASTVLPAFGVDAWGQGTTVTVSS VL: DIVMTQSPLSLPVTPGEPASISCQASQELVHMNRNTYLHWYQQKPGQAPRLLIYKVSNRFPGVPDRFSGSGSGTDFTLKISRVEAEDVGVYYCAQGTSVPFTFGQGTKLEIK | 3.7 fold
5 | H183/L072 VH A54K (antibody, name in Kabat numbering, V domains shown) VH: QVQLVESGGGLVQPGRSLRLSCAASGFTFSNAWMHWVRQAPGKGLEWVAQIKDKGNKYAAYYAPSVKGRFTISRDDSKNSIYLQMNSLKTEDTAVYYCHYVHYASASTVLPAFGVDAWGQGTTVTVSS VL: DIVMTQSPLSLPVTPGEPASISCQASQELVHMNRNTYLHWYQQKPGQAPRLLIYKVSNRFPGVPDRFSGSGSGTDFTLKISRVEAEDVGVYYCAQGTSVPFTFGQGTKLEIK | 0.9 fold
6 | H183/L072 VH A32K (antibody, name in Kabat numbering, V domains shown) VH: QVQLVESGGGLVQPGRSLRLSCAASGFTFSNKWMHWVRQAPGKGLEWVAQIKDKGNAYAAYYAPSVKGRFTISRDDSKNSIYLQMNSLKTEDTAVYYCHYVHYASASTVLPAFGVDAWGQGTTVTVSS VL: DIVMTQSPLSLPVTPGEPASISCQASQELVHMNRNTYLHWYQQKPGQAPRLLIYKVSNRFPGVPDRFSGSGSGTDFTLKISRVEAEDVGVYYCAQGTSVPFTFGQGTKLEIK | 1 fold
7 | H183/L072 VH A32T (antibody, name in Kabat numbering, V domains shown) VH: QVQLVESGGGLVQPGRSLRLSCAASGFTFSNTWMHWVRQAPGKGLEWVAQIKDKGNAYAAYYAPSVKGRFTISRDDSKNSIYLQMNSLKTEDTAVYYCHYVHYASASTVLPAFGVDAWGQGTTVTVSS VL: DIVMTQSPLSLPVTPGEPASISCQASQELVHMNRNTYLHWYQQKPGQAPRLLIYKVSNRFPGVPDRFSGSGSGTDFTLKISRVEAEDVGVYYCAQGTSVPFTFGQGTKLEIK | 3.9 fold
8 | H183/L072 VH A54H (antibody, name in Kabat numbering, V domains shown) VH: QVQLVESGGGLVQPGRSLRLSCAASGFTFSNAWMHWVRQAPGKGLEWVAQIKDKGNHYAAYYAPSVKGRFTISRDDSKNSIYLQMNSLKTEDTAVYYCHYVHYASASTVLPAFGVDAWGQGTTVTVSS VL: DIVMTQSPLSLPVTPGEPASISCQASQELVHMNRNTYLHWYQQKPGQAPRLLIYKVSNRFPGVPDRFSGSGSGTDFTLKISRVEAEDVGVYYCAQGTSVPFTFGQGTKLEIK | 1 fold
9 | H183/L072 VH A54L (antibody, name in Kabat numbering, V domains shown) VH: QVQLVESGGGLVQPGRSLRLSCAASGFTFSNAWMHWVRQAPGKGLEWVAQIKDKGNLYAAYYAPSVKGRFTISRDDSKNSIYLQMNSLKTEDTAVYYCHYVHYASASTVLPAFGVDAWGQGTTVTVSS VL: DIVMTQSPLSLPVTPGEPASISCQASQELVHMNRNTYLHWYQQKPGQAPRLLIYKVSNRFPGVPDRFSGSGSGTDFTLKISRVEAEDVGVYYCAQGTSVPFTFGQGTKLEIK | 1 fold
10 | H183/L072 VH A32G (antibody, name in Kabat numbering, V domains shown) VH: QVQLVESGGGLVQPGRSLRLSCAASGFTFSNGWMHWVRQAPGKGLEWVAQIKDKGNAYAAYYAPSVKGRFTISRDDSKNSIYLQMNSLKTEDTAVYYCHYVHYASASTVLPAFGVDAWGQGTTVTVSS VL: DIVMTQSPLSLPVTPGEPASISCQASQELVHMNRNTYLHWYQQKPGQAPRLLIYKVSNRFPGVPDRFSGSGSGTDFTLKISRVEAEDVGVYYCAQGTSVPFTFGQGTKLEIK | 0.1 fold
11 | H183/L072 VH A54E (antibody, name in Kabat numbering, V domains shown) VH: QVQLVESGGGLVQPGRSLRLSCAASGFTFSNAWMHWVRQAPGKGLEWVAQIKDKGNEYAAYYAPSVKGRFTISRDDSKNSIYLQMNSLKTEDTAVYYCHYVHYASASTVLPAFGVDAWGQGTTVTVSS VL: DIVMTQSPLSLPVTPGEPASISCQASQELVHMNRNTYLHWYQQKPGQAPRLLIYKVSNRFPGVPDRFSGSGSGTDFTLKISRVEAEDVGVYYCAQGTSVPFTFGQGTKLEIK | 1 fold
12 | H183/L072 VH A32S (antibody, name in Kabat numbering, V domains shown) VH: QVQLVESGGGLVQPGRSLRLSCAASGFTFSNSWMHWVRQAPGKGLEWVAQIKDKGNAYAAYYAPSVKGRFTISRDDSKNSIYLQMNSLKTEDTAVYYCHYVHYASASTVLPAFGVDAWGQGTTVTVSS VL: DIVMTQSPLSLPVTPGEPASISCQASQELVHMNRNTYLHWYQQKPGQAPRLLIYKVSNRFPGVPDRFSGSGSGTDFTLKISRVEAEDVGVYYCAQGTSVPFTFGQGTKLEIK | 0.9 fold
13 | H183/L072 VH A32N (antibody, name in Kabat numbering, V domains shown) VH: QVQLVESGGGLVQPGRSLRLSCAASGFTFSNNWMHWVRQAPGKGLEWVAQIKDKGNAYAAYYAPSVKGRFTISRDDSKNSIYLQMNSLKTEDTAVYYCHYVHYASASTVLPAFGVDAWGQGTTVTVSS VL: DIVMTQSPLSLPVTPGEPASISCQASQELVHMNRNTYLHWYQQKPGQAPRLLIYKVSNRFPGVPDRFSGSGSGTDFTLKISRVEAEDVGVYYCAQGTSVPFTFGQGTKLEIK | 0.3 fold

Further lines, results first:

Row | fold change of affinity | Binder
14 | 0.1 fold | H183/L072 VH A32F (antibody, name in Kabat numbering, V domains shown) VH: QVQLVESGGGLVQPGRSLRLSCAASGFTFSNFWMHWVRQAPGKGLEWVAQIKDKGNAYAAYYAPSVKGRFTISRDDSKNSIYLQMNSLKTEDTAVYYCHYVHYASASTVLPAFGVDAWGQGTTVTVSS VL: DIVMTQSPLSLPVTPGEPASISCQASQELVHMNRNTYLHWYQQKPGQAPRLLIYKVSNRFPGVPDRFSGSGSGTDFTLKISRVEAEDVGVYYCAQGTSVPFTFGQGTKLEIK
15 | 1.6 fold | H183/L072 VH A32Q (antibody, name in Kabat numbering, V domains shown) VH: QVQLVESGGGLVQPGRSLRLSCAASGFTFSNQWMHWVRQAPGKGLEWVAQIKDKGNAYAAYYAPSVKGRFTISRDDSKNSIYLQMNSLKTEDTAVYYCHYVHYASASTVLPAFGVDAWGQGTTVTVSS VL: DIVMTQSPLSLPVTPGEPASISCQASQELVHMNRNTYLHWYQQKPGQAPRLLIYKVSNRFPGVPDRFSGSGSGTDFTLKISRVEAEDVGVYYCAQGTSVPFTFGQGTKLEIK
16 | 0.9 fold | H183/L072 VH A54F (antibody, name in Kabat numbering, V domains shown) VH: QVQLVESGGGLVQPGRSLRLSCAASGFTFSNAWMHWVRQAPGKGLEWVAQIKDKGNFYAAYYAPSVKGRFTISRDDSKNSIYLQMNSLKTEDTAVYYCHYVHYASASTVLPAFGVDAWGQGTTVTVSS VL: DIVMTQSPLSLPVTPGEPASISCQASQELVHMNRNTYLHWYQQKPGQAPRLLIYKVSNRFPGVPDRFSGSGSGTDFTLKISRVEAEDVGVYYCAQGTSVPFTFGQGTKLEIK
17 | 0.5 fold | H183/L072 VH A54I (antibody, name in Kabat numbering, V domains shown) VH: QVQLVESGGGLVQPGRSLRLSCAASGFTFSNAWMHWVRQAPGKGLEWVAQIKDKGNIYAAYYAPSVKGRFTISRDDSKNSIYLQMNSLKTEDTAVYYCHYVHYASASTVLPAFGVDAWGQGTTVTVSS VL: DIVMTQSPLSLPVTPGEPASISCQASQELVHMNRNTYLHWYQQKPGQAPRLLIYKVSNRFPGVPDRFSGSGSGTDFTLKISRVEAEDVGVYYCAQGTSVPFTFGQGTKLEIK
18 | 1.1 fold | H183/L072 VH A54D (antibody, name in Kabat numbering, V domains shown) VH: QVQLVESGGGLVQPGRSLRLSCAASGFTFSNAWMHWVRQAPGKGLEWVAQIKDKGNDYAAYYAPSVKGRFTISRDDSKNSIYLQMNSLKTEDTAVYYCHYVHYASASTVLPAFGVDAWGQGTTVTVSS VL: DIVMTQSPLSLPVTPGEPASISCQASQELVHMNRNTYLHWYQQKPGQAPRLLIYKVSNRFPGVPDRFSGSGSGTDFTLKISRVEAEDVGVYYCAQGTSVPFTFGQGTKLEIK
19 | 1.6 fold | H183/L072 VH A32M (antibody, name in Kabat numbering, V domains shown) VH: QVQLVESGGGLVQPGRSLRLSCAASGFTFSNMWMHWVRQAPGKGLEWVAQIKDKGNAYAAYYAPSVKGRFTISRDDSKNSIYLQMNSLKTEDTAVYYCHYVHYASASTVLPAFGVDAWGQGTTVTVSS VL: DIVMTQSPLSLPVTPGEPASISCQASQELVHMNRNTYLHWYQQKPGQAPRLLIYKVSNRFPGVPDRFSGSGSGTDFTLKISRVEAEDVGVYYCAQGTSVPFTFGQGTKLEIK
20 | 0.2 fold | H183/L072 VH A32H (antibody, name in Kabat numbering, V domains shown) VH: QVQLVESGGGLVQPGRSLRLSCAASGFTFSNHWMHWVRQAPGKGLEWVAQIKDKGNAYAAYYAPSVKGRFTISRDDSKNSIYLQMNSLKTEDTAVYYCHYVHYASASTVLPAFGVDAWGQGTTVTVSS VL: DIVMTQSPLSLPVTPGEPASISCQASQELVHMNRNTYLHWYQQKPGQAPRLLIYKVSNRFPGVPDRFSGSGSGTDFTLKISRVEAEDVGVYYCAQGTSVPFTFGQGTKLEIK
21 | 2.2 fold | H183/L072 VH A32I (antibody, name in Kabat numbering, V domains shown) VH: QVQLVESGGGLVQPGRSLRLSCAASGFTFSNIWMHWVRQAPGKGLEWVAQIKDKGNAYAAYYAPSVKGRFTISRDDSKNSIYLQMNSLKTEDTAVYYCHYVHYASASTVLPAFGVDAWGQGTTVTVSS VL: DIVMTQSPLSLPVTPGEPASISCQASQELVHMNRNTYLHWYQQKPGQAPRLLIYKVSNRFPGVPDRFSGSGSGTDFTLKISRVEAEDVGVYYCAQGTSVPFTFGQGTKLEIK
